In patent US20220041746A1 (Sanofi, published 2022):
“And” between values parts separate entries of the source, which are not always exact repeats. Equal entries are not always repeated.

How the values were obtained:
[1] = target: T1, recombinant human CD38 (SPR of Example 4) (human, UniProt P28907 45-300, limits assumed); test: SPR; KD rounded to an integer; second value of the pair, taken for CD3low
Description: (§1) Surface regenerate was conducted by injecting 10 mM Glycine-HCl pH 2.5 for 60 sec at 30 μl/min. […] Equilibrium dissociation constant (KD) was calculated using association rate constant (kₒₙ) and dissociation rate constant (koff).

[2] = target: human CD28 (SPR of Example 4) (human, UniProt P10747 19-152, limits assumed); test: as above
Description: as §1

[3] = target: T1, recombinant human CD38 (SPR of Example …); test: SPR (column 'KD value against rec. protein by SPR (nM)'); second value of the pair, taken for CD3low
[4] = target: T2, human CD3 (Cambridge Biologics LLC Cat #03-01-0051) (human, UniProt P07766 23-126; P09693 23-116); test: ELISA on coated hCD3 γε IgG4; the arrow ends on the second curve from the right, which carries the small markers
T2 construct: the reagent may hold further CD3 chains
Description: (§2) The binding properties of the purified antibodies were analyzed either using ELISA or SPR methods. For ELISA, corresponding antigens for each binding site in the trispecific binding protein were used to coat a 96-well Immuno Plate (Nunc 439454, Thermo Fisher Scientific) overnight at 4° C. using 2 μg/ml each antigen m PBS(pH7.4). The coated plate was blocked using 5% skim milk 12% BSA in PBS for one hour at RT, followed by washing with PBS+[…] three times (Aqua Max 400, Molecular Devices). Serial dilution of antibodies (trispecific and control Abs) were prepared and added onto the ELISA plates (100 μl/well in duplicate), incubated at RT for one hour, followed by washing 5 times with PBS+0.25% Tween 20.
(§3) The reaction was terminated by adding 50 μl 1M H₂SO₄, and OD₄₅₀ was measured using SpectraMax M5 (Molecular Devices) and analyzed using SoltMax Pro6.3 software (Molecular Devices). The final data was transferred to GraphPad Prism software (GraphPad Software, CA. USA), and plotted as shown. EC50 was calculated using the same software.

[5] = target: human CD38 (Cambridge Biologics LLC Cat #03-01-0369) (human, UniProt P28907 43-300); test: ELISA on coated hCD38-His
Description: as §2, §3

[6] = target: T3, human CD38 expressed on the cell surface (human, UniProt P28907 1-300); test: flow cytometry on 300.19 huCD38 cells (PréB hCD38)
T3 construct: whole, on cells; also called hCD38-expressing cells; huCD38
Description: (§4) The recombinant cell line was described by J. Deckket et al. 2014 Clin. Cancer Res 20:4574-4583. […] Antibody binding was evaluated after centrifugation and resuspension of cells by adding 200 μl/well PBS 1% BSA and read using Guava® easyCyte™ 8HT Flow Cytometry System. Apparent KD and EC50 values were estimated using BIOST®T-BINDING and BIOST®T-SPEED software, respectively.

[7] = target: T4, cynomolgus monkey CD38 expressed on the cell surface (cynomolgus monkey, UniProt Q5VAN0 1-301); test: flow cytometry on 300.19 cynoCD38 cells (PréB cCD38)
T4 construct: whole, on cells; also called cCD38-expressing cells
Description: as §4

[8] = target: T1, recombinant human CD38 (SPR of Example …); test: SPR; KD rounded to an integer; first value of the pair, taken for CD3mid
[9] = target: T1, recombinant human CD38 (SPR of Example …); test: SPR (column 'KD value against rec. protein by SPR (nM)'); first value of the pair, taken for CD3mid
[10] = target: T3, human CD38 expressed on the cell surface; test: flow cytometry, 'Apparent KD value against rec. cells by FACS (nM)'; single value of the mid/low row, equal to the EC50 of the CD3mid protein in FIG. 6B
Description: as §4

hCD38-his (SEQ ID NO: 2) [11] = target: T5, hCD38-his (SEQ ID NO: 2) (human, UniProt P28907 45-300); test: ELISA on hCD38::Histag
T5 construct: His-tagged soluble protein derived from isoform A; also called human CD38-histag; hCD38::Histag

hCD38-his (SEQ ID NO: 2) [12] = target: T5, hCD38-his (SEQ ID NO: 2); test: ELISA (column ELISA EC50 nM, hu)
cCD38-his (SEQ ID NO: 4) [13] = target: T6, cCD38-his (SEQ ID NO: 4) (cynomolgus monkey, UniProt Q5VAN0 46-301); test: ELISA on cynoCD38::Histag [Cont.]
T6 construct: His-tagged soluble protein; also called cyno CD38-histag; cynoCD38::Histag

cCD38-his (SEQ ID NO: 4) [14] = target: T6, cCD38-his (SEQ ID NO: 4); test: ELISA (column ELISA EC50 nM, cyno)
[15] = target: T3, human CD38 expressed on the cell surface; test: flow cytometry (column FACS EC50 nM, hu)
Description: as §4, with “Clin” for “Clin.”, “μL/well” for “μl/well”, “easvCyte™” for “easyCyte™”, “BIOST@T-BINDING” for “BIOST®T-BINDING”, “BIOST@T-SPEED” for “BIOST®T-SPEED”

[16] = target: T3, human CD38 expressed on the cell surface; test: flow cytometry on preB::300.19 cells, apparent KD
Description: as §4, with “Clin” for “Clin.”, “μL/well” for “μl/well”, “easvCyte™” for “easyCyte™”, “BIOST@T-BINDING” for “BIOST®T-BINDING”, “BIOST@T-SPEED” for “BIOST®T-SPEED”

[17] = target: T4, cynomolgus monkey CD38 expressed on the …; test: flow cytometry on preB::300.19 cells, apparent KD
Description: as §4, with “Clin” for “Clin.”, “μL/well” for “μl/well”, “easvCyte™” for “easyCyte™”, “BIOST@T-BINDING” for “BIOST®T-BINDING”, “BIOST@T-SPEED” for “BIOST®T-SPEED”

[18] = target: T4, cynomolgus monkey CD38 expressed on the …; test: flow cytometry (column FACS EC50 nM, cyno)
Description: as §4, with “Clin” for “Clin.”, “μL/well” for “μl/well”, “easvCyte™” for “easyCyte™”, “BIOST@T-BINDING” for “BIOST®T-BINDING”, “BIOST@T-SPEED” for “BIOST®T-SPEED”

[19] = target: T3, human CD38 expressed on the cell surface; test: flow cytometry (FACS) on 300.19 PreB hCD38 cells
Description: as §4, with “Clin” for “Clin.”, “μL/well” for “μl/well”, “easvCyte™” for “easyCyte™”, “BIOST@T-BINDING” for “BIOST®T-BINDING”, “BIOST@T-SPEED” for “BIOST®T-SPEED”

hCD38-his (SEQ ID NO: 2) [20] = target: T5, hCD38-his (SEQ ID NO: 2); test: SPR, mAb captured via anti-human Fc, soluble CD38-his injected
Description: (§5) The binding properties of the anti-huCD38 mabs were evaluated using a BIAcore 2000 (BIAcore Inc., Uppsala, Ni). […] The surface was regenerated between injections using 30 μL of 50 mM NaOH-1 M NaCl. Individual sensorgrams wore analyzed using BIAsimulation software.

cCD38-his (SEQ ID NO: 4) [21] = target: T6, cCD38-his (SEQ ID NO: 4); test: as above
Description: as §5

[22] = target: T4, cynomolgus monkey CD38 expressed on the …; test: flow cytometry (FACS) on 300.19 PreB cynoCD38 cells [Cont.]
Description: as §4, with “Clin” for “Clin.”, “μL/well” for “μl/well”, “easvCyte™” for “easyCyte™”, “BIOST@T-BINDING” for “BIOST®T-BINDING”, “BIOST@T-SPEED” for “BIOST®T-SPEED”

[23] = target: T2, human CD3 (Cambridge Biologics LLC Cat …); test: ELISA on coated hCD3 γε IgG4; the arrow ends on the rightmost curve, which carries the triangles
Description: as §2, §3

B1: CD38VH1×CD28cvn×CD3low IgG4 (other)
VH 1: QVQLVQSGAEVVKPGASVKVSCKASGYTFTSYAMHWVKEAPGQRLEWIGYIYPGQGGTNYNQKFQGRATLTADTSASTAYMELSSLRSEDTAVYFCARTGGLRRAYFTYWGQGTLVTVSS
VL 1: DIVLTQSPATLSLSPGERATISCRASQSVSSYGQGFMHWYQQKPGQPPRLLIYGASSRATGIPARFSGSGSGTDFTLTISPLEPEDFAVYYCQQNKEDPWTFGGGTKLEIK
VH 2: QVQLQESGPGLVKPSQTLSLTCTVSGFSLSDYGVHWVRQPPGKGLEWLGVIWAGGGTNYNPSLKSRKTISKDTSKNQVSLKLSSVTAADTAVYYCARDKGYSYYYSMDYWGQGTTVTVSS
VL 2: DIVLTQSPASLAVSPGQRATITCRASESVEYYVTSLMQWYQQKPGQPPKLLIFAASNVESGVPARFSGSGSGTDFTLTINPVEANDVANYYCQQSRKVPYTFGQGTKLEIK
VH 3: QVQLVESGGGVVQPGRSLRLSCAASGFTFTKAWMHWVRQAPGKGLEWVAQIKDKSNSYATYYADSVKGRFTISRDNSKNTLYLQMNSLRAEDTAVYYCRGVYYALSPFDYWGQGTLVTVSS
VL 3: DIVMTQTPLSLSVTPGQPASISCKSSQSLVHNNGNTYLSWYLQKPGQSPQLLIYKVSNRFSGVPDRFSGSGSGTDFTLKISRVEAEDVGVYYCGQGTQYPFTFGGGTKVEIK
notes: also called CD38VH1×CD28evn×CD3low IgG4
Kd [1]: 6 nM | Kd [2]: 34 nM | Kd [3]: 6 nM | EC50 [4]: 0.491 nM

B2: CD38VH1×CD28sup×CD3mid IgG4 (other)
VH 1: QVQLVQSGAEVVKPGASVKVSCKASGYTFTSYAMHWVKEAPGQRLEWIGYIYPGQGGTNYNQKFQGRATLTADTSASTAYMELSSLRSEDTAVYFCARTGGLRRAYFTYWGQGTLVTVSS
VL 1: DIVLTQSPATLSLSPGERATISCRASQSVSSYGQGFMHWYQQKPGQPPRLLIYGASSRATGIPARFSGSGSGTDFTLTISPLEPEDFAVYYCQQNKEDPWTFGGGTKLEIK
VH 2: QVQLVQSGAEVVKPGASVKVSCKASGYTFTSYYIHWVRQAPGQGLEWIGSIYPGNVNTNYAQKFQGRATLTVDTSISTAYMELSRLRSDDTAVYYCTRSHYGLDWNFDVWGKGTTVTVSS
VL 2: DIQMTQSPSSLSASVGDRVTITCQASQNIYVWLNWYQQKPGKAPKLLIYKASNLHTGVPSRFSGSGSGTDFTLTISSLQPEDIATYYCQQGQTYPYTFGQGTKLEIK
VH 3: QVQLVESGGGVVQPGRSLRLSCAASGFTFTKAWMHWVRQAPGKQLEWVAQIKDKSNSYATYYADSVKGRFTISRDDSKNTLYLQMNSLRAEDTAVYYCRGVYYALSPFDYWGQGTLVTVSS
VL 3: DIVMTQTPLSLSVTPGQPASISCKSSQSLVHNNANTYLSWYLQKPGQSPQSLIYKVSNRFSGVPDRFSGSGSGTDFTLKISRVEAEDVGVYYCGQGTQYPFTFGSGTKVEIK
notes: also called anti-CD38(VH1)×CD28(sup)×CD3(mid)
EC50 (read off the curve) [5]: ~3 nM | EC50 [6]: 11 nM and 1.67 µg/mL | EC50 [7]: 17 nM and 2.53 µg/mL | Kd [8]: 4 nM | Kd [9]: 4 nM | Kd [10]: 11 nM

B3: mAb3 (antibody, human IgG1, kappa, V domains shown)
VH: QVQLVQSGAEVVKPGASVKVSCKASGYTFTSFNMHWVKEAPGQRLEWIGYIYPGNGGTNYNQKFQGRATLTADTSASTAYMELSSLRSEDTAVYFCARTGGLRRAYFTYWGQGTLVTVSS
VL: DIVLTQSPATLSLSPGERATISCRASESVDSYGNGFMHWYQQKPGQPPRLLIYLASSRATGIPARFSGSGSGTDFTLTISPLEPEDFAVYYCQQNKEDPWTFGGGTKLEIKR
notes: also called antiCD38_C2-CD38-1_VH3-VL3
EC50 (hCD38-his (SEQ ID NO: 2) [11]): 0.16 nM | EC50 (hCD38-his (SEQ ID NO: 2) [12]): 0.16 nM | EC50 (cCD38-his (SEQ ID NO: 4) [13]): 0.15 nM | EC50 (cCD38-his (SEQ ID NO: 4) [14]): 0.15 nM | EC50 [15]: 0.78 nM | Kd [16]: 0.78 nM | Kd [17]: 1.31 nM | EC50 [18]: 1.31 nM | EC50 [19]: 0.78 nM and 0.117 µg/mL | Kd (hCD38-his (SEQ ID NO: 2) [20]): 0.483 nM | koff (hCD38-his (SEQ ID NO: 2) [20]): 0.000283 s⁻¹ | Kd (cCD38-his (SEQ ID NO: 4) [21]): 0.71 nM | koff (cCD38-his (SEQ ID NO: 4) [21]): 0.000129 s⁻¹ | EC50 [22]: 1.31 nM

B4: CD38VH1×CD28sup×CD3low IgG4 (other)
VH 1: QVQLVQSGAEVVKPGASVKVSCKASGYTFTSYAMHWVKEAPGQRLEWIGYIYPGQGGTNYNQKFQGRATLTADTSASTAYMELSSLRSEDTAVYFCARTGGLRRAYFTYWGQGTLVTVSS
VL 1: DIVLTQSPATLSLSPGERATISCRASQSVSSYGQGFMHWYQQKPGQPPRLLIYGASSRATGIPARFSGSGSGTDFTLTISPLEPEDFAVYYCQQNKEDPWTFGGGTKLEIK
VH 2: QVQLVQSGAEVVKPGASVKVSCKASGYTFTSYYIHWVRQAPGQGLEWIGSIYPGNVNTNYAQKFQGRATLTVDTSISTAYMELSRLRSDDTAVYYCTRSHYGLDWNFDVWGKGTTVTVSS
VL 2: DIQMTQSPSSLSASVGDRVTITCQASQNIYVWLNWYQQKPGKAPKLLIYKASNLHTGVPSRFSGSGSGTDFTLTISSLQPEDIATYYCQQGQTYPYTFGQGTKLEIK
VH 3: QVQLVESGGGVVQPGRSLRLSCAASGFTFTKAWMHWVRQAPGKGLEWVAQIKDKSNSYATYYADSVKGRFTISRDNSKNTLYLQMNSLRAEDTAVYYCRGVYYALSPFDYWGQGTLVTVSS
VL 3: DIVMTQTPLSLSVTPGQPASISCKSSQSLVHNNGNTYLSWYLQKPGQSPQLLIYKVSNRFSGVPDRFSGSGSGTDFTLKISRVEAEDVGVYYCGQGTQYPFTFGGGTKVEIK
EC50 (read off the curve) [5]: ~6 nM | Kd [1]: 6 nM | Kd [2]: 4 nM | EC50 [23]: 1.04 nM | Kd [3]: 6 nM
